Test results taken from the supplement of paper PMC11316812.
± gives the standard deviation of the averaged measurements.

Key:
hTERT-HMEC = experiment: percentage of EdU-negative (G0-arrested) nuclei per well, 72 h; higher = more G0 arrest; settings: reference: sequence is the full UniProt precursor, the tested protein was the secreted form or ectodomain
MCF7 = experiment: as above; settings: reference: sequence is the full UniProt precursor, the tested protein was the secreted form or ectodomain
[1] = protein concentration 0.02075 µM
[2] = protein concentration 0.2075 µM
[3] = protein concentration 0.03125 µM
[4] = protein concentration 0.3125 µM
[5] = protein concentration 0.01075 µM
[6] = protein concentration 0.1075 µM
[7] = protein concentration 0.0357143 µM
[8] = protein concentration 0.357143 µM
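Also: secreted proteins added to cultured cells, EdU pulse at the end, nuclei found by Hoechst imaging, EdU status from nuclear versus surrounding ring intensity ratio, PBS as neutral control.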

Sequence	percentage of EdU-negative (hTERT-HMEC; [3]) [%]	percentage of EdU-negative (hTERT-HMEC; [4]) [%]	percentage of EdU-negative (MCF7; [3]) [%]	percentage of EdU-negative (MCF7; [4]) [%]	further results
MEKKWKYCAVYYIIQIHFVKGVWEKTVNTEENVYATLGSDVNLTCQTQTVGFFVQMQWSKVTNKIDLIAVYHPQYGFYCAYGRPCESLVTFTETPENGSKWTLHLRNMSCSVSGRYECMLVLYPEGIQTKIYNLLIQTHVTADEWNSNHTIEIEINQTLEIPCFQNSSSKISSEFTYAWSVENSSTDSWVLLSKGIKEDNGTQETLISQNHLISNSTLLKDRVKLGTDYRLHLSPVQIFDDGRKFSCHIRVGPNKILRSSTTVKVFAKPEIPVIVENNSTDVLVERRFTCLLKNVFPKANITWFIDGSFLHDEKEGIYITNEERKGKDGFLELKSVLTRVHSNKPAQSDNLTIWCMALSPVPGNKVWNISSEKITFLLGSEISSTDPPLSVTESTLDTQPSPASSVSPARYPATSSVTLVDVSALRPNTTPQPSNSSMTTRGFNYPWTSSGTDTKKSVSRIPSETYSSSPSGAGSTLHDNVFTSTARAFSEVPTTANGSTKTNHVHITGIVVNKPKDGMSWPVIVAALLFCCMILFGLGVRKWCQYQKEIMERPPPFKPPPPPIKYTCIQEPNESDLPYHEMETL	–	–	–	–	percentage of EdU-negative (hTERT-HMEC; [1]): 4.86 ± 1%; percentage of EdU-negative (hTERT-HMEC; [2]): 12.1 ± 1.3%; percentage of EdU-negative (MCF7; [1]): 25.5 ± 0.86%; percentage of EdU-negative (MCF7; [2]): 29.5 ± 0.78%
MEKLLCFLVLTSLSHAFGQTDMSRKAFVFPKESDTSYVSLKAPLTKPLKAFTVCLHFYTELSSTRGYSIFSYATKRQDNEILIFWSKDIGYSFTVGGSEILFEVPEVTVAPVHICTSWESASGIVEFWVDGKPRVRKSLKKGYTVGAEASIILGQEQDSFGGNFEGSQSLVGDIGNVNMWDFVLSPDEINTIYLGGPFSPNVLNWRALKYEVQGEVFTKPQLWP	4.41 ± 0.15	5.8 ± 1.1	24.1 ± 2.6	25.3 ± 0.79	–
MEKMLAGCFLLILGQIVLLPAEARERSRGRSISRGRHARTHPQTALLESSCENKRADLVFIIDSSRSVNTHDYAKVKEFIVDILQFLDIGPDVTRVGLLQYGSTVKNEFSLKTFKRKSEVERAVKRMRHLSTGTMTGLAIQYALNIAFSEAEGARPLRENVPRVIMIVTDGRPQDSVAEVAAKARDTGILIFAIGVGQVDFNTLKSIGSEPHEDHVFLVANFSQIETLTSVFQKKLCTAHMCSTLEHNCAHFCINIPGSYVCRCKQGYILNSDQTTCRIQDLCAMEDHNCEQLCVNVPGSFVCQCYSGYALAEDGKRCVAVDYCASENHGCEHECVNADGSYLCQCHEGFALNPDKKTCTKIDYCASSNHGCQHECVNTDDSYSCHCLKGFTLNPDKKTCRRINYCALNKPGCEHECVNMEESYYCRCHRGYTLDPNGKTCSRVDHCAQQDHGCEQLCLNTEDSFVCQCSEGFLINEDLKTCSRVDYCLLSDHGCEYSCVNMDRSFACQCPEGHVLRSDGKTCAKLDSCALGDHGCEHSCVSSEDSFVCQCFEGYILREDGKTCRRKDVCQAIDHGCEHICVNSDDSYTCECLEGFRLAEDGKRCRRKDVCKSTHHGCEHICVNNGNSYICKCSEGFVLAEDGRRCKKCTEGPIDLVFVIDGSKSLGEENFEVVKQFVTGIIDSLTISPKAARVGLLQYSTQVHTEFTLRNFNSAKDMKKAVAHMKYMGKGSMTGLALKHMFERSFTQGEGARPLSTRVPRAAIVFTDGRAQDDVSEWASKAKANGITMYAVGVGKAIEEELQEIASEPTNKHLFYAEDFSTMDEISEKLKKGICEALEDSDGRQDSPAGELPKTVQQPTESEPVTINIQDLLSCSNFAVQHRYLFEEDNLLRSTQKLSHSTKPSGSPLEEKHDQCKCENLIMFQNLANEEVRKLTQRLEEMTQRMEALENRLRYR	–	–	–	–	percentage of EdU-negative (hTERT-HMEC; [5]): 5.94 ± 0.34%; percentage of EdU-negative (hTERT-HMEC; [6]): 6.49 ± 0.6%; percentage of EdU-negative (MCF7; [5]): 29.2 ± 1.9%; percentage of EdU-negative (MCF7; [6]): 24.3 ± 0.75%
MELQPPEASIAVVSIPRQLPGSHSEAGVQGLSAGDDSELGSHCVAQTGLELLASGDPLPSASQNAEMIETGSDCVTQAGLQLLASSDPPALASKNAEVTGTMSQDTEVDMKEVELNELEPEKQPMNAASGAAMSLAGAEKNGLVKIKVAEDEAEAAAAAKFTGLSKEELLKVAGSPGWVRTRWALLLLFWLGWLGMLAGAVVIIVRAPRCRELPAQKWWHTGALYRIGDLQAFQGHGAGNLAGLKGRLDYLSSLKVKGLVLGPIHKNQKDDVAQTDLLQIDPNFGSKEDFDSLLQSAKKKSIRVILDLTPNYRGENSWFSTQVDTVATKVKDALEFWLQAGVDGFQVRDIENLKDASSFLAEWQNITKGFSEDRLLIAGTNSSDLQQILSLLESNKDLLLTSSYLSDSGSTGEHTKSLVTQYLNATGNRWCSWSLSQARLLTSFLPAQLLRLYQLMLFTLPGTPVFSYGDEIGLDAAALPGQPMEAPVMLWDESSFPDIPGAVSANMTVKGQSEDPGSLLSLFRRLSDQRSKERSLLHGDFHAFSAGPGLFSYIRHWDQNERFLVVLNFGDVGLSAGLQASDLPASASLPAKADLLLSTQPGREEGSPLELERLKLEPHEGLLLRFPYAA	5.08 ± 0.89	8.07 ± 1.1	23.1 ± 0.58	27.1 ± 0.54	–
MELRARGWWLLCAAAALVACARGDPASKSRSCGEVRQIYGAKGFSLSDVPQAEISGEHLRICPQGYTCCTSEMEENLANRSHAELETALRDSSRVLQAMLATQLRSFDDHFQHLLNDSERTLQATFPGAFGELYTQNARAFRDLYSELRLYYRGANLHLEETLAEFWARLLERLFKQLHPQLLLPDDYLDCLGKQAEALRPFGEAPRELRLRATRAFVAARSFVQGLGVASDVVRKVAQVPLGPECSRAVMKLVYCAHCLGVPGARPCPDYCRNVLKGCLANQADLDAEWRNLLDSMVLITDKFWGTSGVESVIGSVHTWLAEAINALQDNRDTLTAKVIQGCGNPKVNPQGPGPEEKRRRGKLAPRERPPSGTLEKLVSEAKAQLRDVQDFWISLPGTLCSEKMALSTASDDRCWNGMARGRYLPEVMGDGLANQINNPEVEVDITKPDMTIRQQIMQLKIMTNRLRSAYNGNDVDFQDASDDGSGSGSGDGCLDDLCSRKVSRKSSSSRTPLTHALPGLSEQEGQKTSAASCPQPPTFLLPLLLFLALTVARPRWR	4.85 ± 0.34	28.7 ± 1.6	27.5 ± 0.42	28.9 ± 2.8	–
MELWGAYLLLCLFSLLTQVTTEPPTQKPKKIVNAKKDVVNTKMFEELKSRLDTLAQEVALLKEQQALQTVCLKGTKVHMKCFLAFTQTKTFHEASEDCISRGGTLGTPQTGSENDALYEYLRQSVGNEAEIWLGLNDMAAEGTWVDMTGARIAYKNWETEITAQPDGGKTENCAVLSGAANGKWFDKRCRDQLPYICQFGIV	–	–	–	–	percentage of EdU-negative (hTERT-HMEC; [7]): 5.64 ± 0.21%; percentage of EdU-negative (hTERT-HMEC; [8]): 25.4 ± 5%; percentage of EdU-negative (MCF7; [7]): 23.3 ± 2.7%; percentage of EdU-negative (MCF7; [8]): 26.7 ± 0.6%
